Experimental data published in US20210047398A1, “ASPROSIN, A FAST-INDUCED GLUCOGENIC PROTEIN HORMONE” (Baylor College of Medicine, priority 2016, published 2021).

How the values were obtained:
[1] = system: hepatic glucose production; test: Hyperinsulinemic-euglycemic clamp; format: in vivo, mice
Experimental: Animals. […] MgR heterozygous mice were obtained from Jackson labs, and bred to obtain male MgR homozygous mice and WT littermates. 5-week-old male Ob/Ob mice were obtained from Jackson labs. […] For diet induced obesity studies, mice were placed on the adjusted calories diet providing 60% of calories from fat by Harlan-Teklad for 12 weeks. […] Mice were exposed to 30 μg recombinant His-tagged asprosin or recombinant Green Fluorescent Protein (GFP) daily for 10 days via subcutaneous injection. Mice were sacrificed and plasma and various organs were isolated 10 days after virus or peptide injection. For single dose injections, the same protocol was followed as that for daily injections, followed by collection of plasma at the indicated times via tail bleeds for insulin and glucose measurement. Insulin and glucose tolerance tests (ITT and GTT) were performed using standard procedures. […] For immunologic sequestration experiments, mice were injected intra-peritoneally with a 500 μg dose in saline of a custom-built (Thermo Scientific Inc.) anti-asprosin mouse monoclonal antibody directed against amino acids 106-134 (human profibrillin amino acids 2837-2865) or an equivalent dose of isotype matched IgG (Southern Biotech, Inc.). […] The Baylor College of Medicine Institutional Animal Care and Utilization Committee approved all experiments.

POMC neurons = test: Whole-cell patch clamp recordings on POMC neurons; format: cell-based, mice
Experimental: Electrophysiology—Whole-cell patch clamp recordings were performed on identified AgRP neurons or POMC neurons in the brain slices containing the arcuate nucleus of the hypothalamus (ARH). In particular, to identify AgRP neurons, the inventors crossed Rosa26-tdTOMATO allele onto the regular AgRP-Cre mice (Tong et al., 2008) to generate AgRP-Cre/Rosa26-tdTOMATO mice, which express TOMATO selectively in AgRP/NPY neurons. In some studies, the inventors crossed NPY-GFP mice (Pinto et al., 2004) with NPS mice to generate NPY-GFP mice with or without the NPS mutation, and GFP-labelled neurons in the arcuate nucleus were recorded. In order to record POMC neurons, the inventors crossed Rosa26-tdTOMATO allele onto the POMC-CreERT2 mice (Berglund et al., 2013) to generate POMC-CreERT2/Rosa26-tdTOMATO mice, which express TOMATO selectively in mature POMC neurons upon tamoxifen induction (0.2 mg/g, i.p. 6 weeks of age). In some studies, the inventors also crossed the AgRP-DTR allele onto POMC-GFP mice, and these mice received DT or saline injections (described above) to generate mice with or without AgRP neurons ablated.
Six to twelve-week old mice were deeply anesthetized with isoflurane and transcardially perfused with a modified ice-cold sucrose-based cutting solution (pH 7.3) containing 10 mM NaCl, 25 mM NaHCO3, 195 mM Sucrose, 5 mM Glucose, 2.5 mM KCl, 1.25 mM NaH2PO4, 2 mM Na-Pyruvate, 0.5 mM CaCl2, and 7 mM MgCl2, bubbled continuously with 95% O2 and 5% CO2 (Ren et al., 2012). The mice were then decapitated, and the entire brain was removed and immediately submerged in the cutting solution. Slices (250 μm) were cut with a Microm HM 650V vibratome (Thermo Scientific). Three brain slices containing the arcuate nucleus were obtained for each animal (Bregma −2.06 mm to −1.46 mm; Interaural 1.74 mm to 2.34 mm), and recordings were made at levels throughout this brain region. The slices were recovered for 1 h at 34° C. and then maintained at room temperature in artificial cerebrospinal fluid (aCSF, pH 7.3) containing 126 mM NaCl, 2.5 mM KCl, 2.4 mM CaCl2, 1.2 mM NaH2PO4, 1.2 mM MgCl2, 11.1 mM glucose, and 21.4 mM NaHCO3) saturated with 95% O2 and 5% CO2 before recording.
Slices were transferred to a recording chamber and allowed to equilibrate for at least 10 min before recording. The slices were superfused at 34° C. in oxygenated aCSF at a flow rate of 1.8-2 ml/min. GFP or TOMATO-labeled neurons in the ARH were visualized using epifluorescence and IR-DIC imaging on an upright microscope (Eclipse FN-1, Nikon) equipped with a moveable stage (MP-285, Sutter Instrument). Patch pipettes with resistances of 3-5 MΩ were filled with intracellular solution (pH 7.3) containing 128 mM K-Gluconate, 10 mM KCl, 10 mM HEPES, 0.1 mM EGTA, 2 mM MgCl2, 0.05 mM Na-GTP and 0.05 mM Mg-ATP. Recordings were made using a MultiClamp 700B amplifier (Axon Instrument), sampled using Digidata 1440A and analyzed offline with pClamp 10.3 software (Axon Instruments). Series resistance was monitored during the recording, and the values were generally <10 MΩ and were not compensated. The liquid junction potential was +12.5 mV, and was corrected after the experiment. Data were excluded if the series resistance increased dramatically during the experiment or without overshoot for action potential. Currents were amplified, filtered at 1 kHz, and digitized at 20 kHz. Current clamp was engaged to test neural firing frequency and resting membrane potential (RM) at the baseline and puff delivered recombinant Asprosin (500 ms at various concentrations indicated in the figures). For the asprosin antibody pre-incubation experiment, asprosin and anti-asprosin mAB or IgG were gently mixed at a 1:100 ratio, and then kept on ice for one hour before recording. After AgRP or POMC neuron response to asprosin alone was confirmed, the mixture of recombinant asprosin and anti-asprosin mAB or IgG was perfused to treat the AgRP or POMC neurons for 4 minutes. […]

B1: recombinant asprosin: 146 amino acid E. coli expressed fusion protein: 6 amino acid N-terminal His tag and 140 amino acid wild type asprosin (FBN1 2732-2871) (protein)
chain: HHHHHHSTNETDASNIEDQSETEANVSLASWDVEKTAIFAFNISHVSNKVRILELLPALTTLTNHNRYLIESGNEDGFFKINQKEGISYLHFTKKKPVAGTYSLQISSTPLYKKKELNQLEDKYDKDYLSGELGDNLKMKIQVLLH
hepatic glucose production ([1]; elevated plasma asprosin, 10 days after FBN1 adenovirus (FIG. 21C)): increased hepatic glucose production | ability of peripheral organs to take up glucose in response to insulin ([1]; glucose disposal rate, FIG. 21D): no impact | miniature inhibitory post-synaptic current (mIPSC) in POMC neurons (POMC neurons): increased the frequency but not amplitude | POMC neuron firing frequency with AgRP neuron ablation (POMC neurons; AgRP neuron ablated mice): little effect | asprosin-mediated hyperpolarization in POMC neurons with AgRP neuron ablation (POMC neurons; AgRP neuron ablated mice): completely prevented | POMC neuron hyperpolarization with blockade of glutamatergic inputs (POMC neurons; TTX + CNQX + AP5): did not affect | ability to hyperpolarize POMC neurons, GABAergic input (POMC neurons; TTX + bicuculline): dependent on intact GABAergic input | proportion of POMC neurons inhibited (POMC neurons; reduced resting membrane potential and firing frequency): ~85%
